# Laboratory results taken from patent publication US20230140868A1, “COMPOSITIONS AND METHODS FOR TREATING CANCER” (Alpha Beta Holdings, LLC, priority 2020, published 2023).
# Experiments:
# tumor cells [1] = experiment: In vitro ADCC with mouse NK cells; type: cell-based; conditions: effector: mouse NK cells
# Description: (§1) We used the isolated macrophages as effector cells in an antibody-dependent cellular-cytotoxicity (ADCC) assay. […] The ratio of dead target cells (PI-positive) to the total target cell population (CFSE-positive) was calculated as described (Bracher, 2007).
# To our surprise, LM609-mediated ADCC was not achieved with mouse NK cells or peripheral blood mononuclear cells (PBMCs) isolated from human blood, immune effector cell types to which antibodies are commonly engineered for optimal binding (Listinsky, 2013; Yu, 2017). In fact, NK cells are not correlated with β3 expression in tumors. These findings were reported in FIG. 3E of Wettersten et al., Cancer Res. 79:5048 (2019).
# integrin αvβ3 = target: T1, integrin αvβ3 (Mus musculus, UniProt O54890+P43406); conditions: mouse cells; Cheresh, 1987; cited from earlier work
# T1 sequence (P43406 31-885 limits assumed): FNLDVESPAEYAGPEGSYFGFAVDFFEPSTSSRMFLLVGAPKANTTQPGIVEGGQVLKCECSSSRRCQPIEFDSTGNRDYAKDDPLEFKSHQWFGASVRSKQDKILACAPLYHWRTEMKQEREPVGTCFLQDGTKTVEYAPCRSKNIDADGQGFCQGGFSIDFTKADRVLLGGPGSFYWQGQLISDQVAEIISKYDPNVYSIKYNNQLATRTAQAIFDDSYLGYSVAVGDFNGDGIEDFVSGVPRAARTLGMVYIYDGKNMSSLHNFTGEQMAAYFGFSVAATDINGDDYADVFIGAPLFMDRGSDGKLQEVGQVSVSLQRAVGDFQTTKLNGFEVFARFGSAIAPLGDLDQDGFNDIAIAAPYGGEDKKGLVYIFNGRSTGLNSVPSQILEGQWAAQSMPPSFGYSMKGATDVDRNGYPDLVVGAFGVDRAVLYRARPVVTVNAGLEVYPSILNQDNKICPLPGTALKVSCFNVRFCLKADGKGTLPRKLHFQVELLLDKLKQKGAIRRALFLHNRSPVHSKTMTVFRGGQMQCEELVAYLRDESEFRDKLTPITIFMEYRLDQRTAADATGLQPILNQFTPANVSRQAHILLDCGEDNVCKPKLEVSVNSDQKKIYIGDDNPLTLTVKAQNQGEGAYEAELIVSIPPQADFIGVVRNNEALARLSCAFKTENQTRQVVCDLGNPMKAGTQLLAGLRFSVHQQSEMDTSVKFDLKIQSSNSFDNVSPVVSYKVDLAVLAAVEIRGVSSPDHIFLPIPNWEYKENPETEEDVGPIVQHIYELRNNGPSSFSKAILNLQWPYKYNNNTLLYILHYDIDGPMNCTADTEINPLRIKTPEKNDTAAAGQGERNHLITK
# T1 sequence (P43406 887-1044 limits assumed): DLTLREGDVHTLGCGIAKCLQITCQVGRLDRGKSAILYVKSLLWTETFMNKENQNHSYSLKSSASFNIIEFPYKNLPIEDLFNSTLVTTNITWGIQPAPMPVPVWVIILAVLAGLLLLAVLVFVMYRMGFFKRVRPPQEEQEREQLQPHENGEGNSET
# T1 sequence (O54890 26-787): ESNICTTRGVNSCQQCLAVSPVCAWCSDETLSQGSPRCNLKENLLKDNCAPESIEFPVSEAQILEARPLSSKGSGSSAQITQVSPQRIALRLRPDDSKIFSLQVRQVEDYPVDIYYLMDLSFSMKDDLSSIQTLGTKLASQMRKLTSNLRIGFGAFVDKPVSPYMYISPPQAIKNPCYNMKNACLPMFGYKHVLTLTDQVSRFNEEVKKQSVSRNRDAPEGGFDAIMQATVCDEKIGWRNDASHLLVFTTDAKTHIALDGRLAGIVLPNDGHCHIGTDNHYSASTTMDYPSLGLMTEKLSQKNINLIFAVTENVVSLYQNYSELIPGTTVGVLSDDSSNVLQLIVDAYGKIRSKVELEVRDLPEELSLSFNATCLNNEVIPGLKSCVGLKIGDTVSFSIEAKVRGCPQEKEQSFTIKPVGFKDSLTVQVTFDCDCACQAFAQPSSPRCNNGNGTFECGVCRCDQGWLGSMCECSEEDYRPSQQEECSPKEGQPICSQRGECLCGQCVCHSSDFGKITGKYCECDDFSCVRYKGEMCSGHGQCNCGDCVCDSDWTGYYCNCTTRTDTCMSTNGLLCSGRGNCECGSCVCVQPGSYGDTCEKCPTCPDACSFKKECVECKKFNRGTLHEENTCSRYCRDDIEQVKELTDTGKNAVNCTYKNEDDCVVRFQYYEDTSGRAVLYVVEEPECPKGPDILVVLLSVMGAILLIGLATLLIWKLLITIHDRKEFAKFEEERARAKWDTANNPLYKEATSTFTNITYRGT
# tumor cells [2] = experiment: In vitro ADCC with TAMs isolated from mouse Lewis lung carcinoma tumors; type: cell-based; conditions: effector: TAMs from LLC tumors grown in C57BL6 or athymic nude mice
# Description: TAMs were isolated from tumor tissues as described (Kaneda, 2016). Tumors were dissociated in HBSS containing collagenase IV (Sigma, C5138), hyaluronidase (Sigma, H2654), dispase 11 (Roche, 04942078001), and DNase IV (Millipore, D5025) at 37° C. for 15 minutes. Cell suspensions were filtered through 70 μm cell strainers and washed with PBS. Single cell suspensions (10^6 cells/100 μl in 5% BSA in PBS) were incubated with Mouse BD Fc Block™ (BD Biosciences, 553142, 1:50) for 10 minutes at 4° C. and fluorescently labeled antibodies, CD11b (eBioscience, 17-0112-81, 1:100), and Ly-6G (eBioscience, 25-5931-81, 1:100), for one hour at 4° C. TAMs (CD11b-positive, Ly-6G-negative) were sorted.
# as §1
molecule,measurement,setting,value
"LM609: mouse monoclonal IgG1K antibody that recognizes human integrin αvβ3; SEQ ID NO:11 and 12 (antibody, mAb LM609-mIgG1-kappa Heavy chain; mAb LM609-mIgG1-kappa Light chain) heavy: MNFGLRLIFLVLTLKGVKCEVQLVESGGGLVKPGGSLKLSCAASGFAFSSYDMSWVRQIPEKRLEWVAKVSSGGGSTYYLDTVQGRFTISRDNAKNTLYLQMSSLNSEDTAMYYCARHNYGSFAYWGQGTLVTVSAAKTTPPSVYPLAPGSAAQTNSMVTLGCLVKGYFPEPVTVTWNSGSLSSGVHTFPAVLQSDLYTLSSSVTVPSSTWPSETVTCNVAHPASSTKVDKKIVPRDCGCKPCICTVPEVSSVFIFPPKPKDVLTITLTPKVTCVVVDISKDDPEVQFSWFVDDVEVHTAQTQPREEQFNSTFRSVSELPIMHQDWLNGKEFKCRVNSAAFPAPIEKTISKTKGRPKAPQVYTIPPPKEQMAKDKVSLTCMITDFFPEDITVEWQWNGQPAENYKNTQPIMDTDGSYFVYSKLNVQKSNWEAGNTFTCSVLHEGLHNHHTEKSLSHSPGK light: MVFTPQILGLMLFWISASRGDIVLTQSPATLSVTPGDSVSLSCRASQSISNHLHWYQQKSHESPRLLIKYASQSISGIPSRFSGSGSGTDFTLSINSVETEDFGMYFCQQSNSWPHTFGGGTKLEIKRADAAPTVSIFPPSSEQLTSGGASVVCFLNNFYPKDINVKWKIDGSERQNGVLNSWTDQDSKDSTYSMSSTLTLTKDEYERHNSYTCEATHKTSTSPIVKSFNRNEC",LM609-mediated ADCC,tumor cells [1],not achieved
same,recognition of integrin αvβ3,integrin αvβ3,not mouse cells
same,ADCC activity,tumor cells [2],robust ADCC activity
